According to US20220347267A1, “METHODS TO IMPROVE PATIENT RESPONSE TO IMMUNE CHECKPOINT INHIBITORS AND FUNCTIONAL TESTS TO PREDICT RESPONSE” (Biomarker Strategies, LLC, priority 2019, published 2022):

How the values were obtained:
Type in all cases: cell-based, human
H1650 cells = assay: PD-L1 western blot after modulators (EM and MTAs); settings: NSCLC H1650, 30 minutes, 3 hours, 24 hours
Text: (§1) Cell lines were acquired from ATCC, Sigma, or DSMZ. Human non-small cell lung carcinoma (NSCLC) cell lines H292 (ATCC no. CRL-1848.), H1299 (ATCC no. CRL-5803), H520 (ATCC no. CRL-5811), CALU6 (ATCC no. HTB-56), H1975 (ATCC no. CRL-5908), H460 (ATCC no. HTB-177), H2126 (ATCC no. CCL-256), H1650 (ATCC no. CRL-5883), and H2087 (ATCC no. CRL-5922) were used for this experiment along with head and neck squamous cell carcinoma (HNSCC) cell lines BHY (DSMZ ACC 404), CAL27 (ATCC no. CRL-2095), KYSE410 (Sigma), and A253 (ATCC no. HTB-41), melanoma cell lines A375 (ATCC no. CRL-1619), COL0853 (Sigma), and MM127 (Sigma) pancreatic cancer cell lines BXPC3 (ATCC no. CRL-1687), colorectal cancer cell lines […], HCT116 (ATCC no. CCL-247EMT), and breast cancer cell lines BT549 (ATCC no. HTB-122), BT20 (ATCC no. HTB-19), and T47D (ATCC no. HTB-133). Cells were maintained in manufacturer-recommended conditions at 37° C. inside humidified 5% CO2 incubators. Sub-cultivation and harvesting for all cell lines were performed using Accutase (GIBCO Life Technologies; cat. no. A1110501) at 37° C. for 10 minutes. Cell viability was measured using trypan blue exclusion staining in conjunction with the Countess II Automated Cell Counter (Thermo Fischer Scientific; cat. no. AMQAX1000). Measurements were made in duplicate and the average number of viable cells was recorded prior to experiments.
(§2) T7039), and IL-10 (50 ng/ml; Sigma Aldrich cat. no. SRP3071) were administered to cell lines for various times including 30 minutes, 3 hour, and 24 hour time intervals prior to cell lysis and protein extraction.
(§3) To determine the effects of the aforementioned molecules on the modulation of PD-L1, we selected various NSCLC, HNSCC, breast cancer, melanoma, colorectal cancer, and pancreatic cancer cell lines as examples. Other diseases or cell lines could be used readily as could more complex samples such as cells isolated from xenografts and clinical samples. Cells were plated, for three different time points (30 minutes, 3 hours, and 24 hours), inside 6-well petri dishes with 2 mL of appropriate medium. Plates were incubated for 24 hours in 5% CO2 incubators at 37° C. After 24 hours, each 6-well plate was washed with PBS (Gibco Life Technologies, cat. no. 10010023) followed by fresh media being added along with each cell line's vehicle control or appropriate modulator for each specific time point, and were placed in CO2 incubators until their modulation time point was reached. Other conditions can be readily used, such as processing on automated systems such as SnapPath. At the end of each time point, while keeping plates on ice, cell lysis was conducted by aspirating culture medium from each plate, washing of each plate three times with 5 ml of cold PBS (Gibco Life Technologies, cat. no. 10010023) and culminated with the addition of cold 1× lysis buffer containing (Cell Signaling, cat. no. 9803 S) protease inhibitor cocktail (Cell Signaling, cat. no. 5871S), phosphatase inhibitor cocktail (Cell Signaling, cat. no. 5870S), and PMSF (Fisher Scientific, cat. no. ICN19538101). Plates were then placed on ice for ten minutes, swirling each plate intermittently. Aliquots of protein lysates were prepared and then stored at −80° C. until protein quantification and Western blot analysis was to be conducted. The protein concentration of each lysate was analyzed by using the Pierce 660 Protein Assay Reagent (Thermo Fisher Scientific, cat. no. 22660) and testing of each sample was conducted in duplicate. Two μg of protein was then loaded per lane into 10% Midi-PROTEAN TGX Precast Gels (Bio Rad, cat. no. 5671034) along with Kaleidoscope Prestained Protein Standard (BioRad, cat. no. 1610375) which ran at 220V for 45 minutes. Proteins were transferred to mini-PVDF membranes (BioRad, cat. no. 1704156) in 3 minutes using the Trans-Blot Turbo Transfer System (BioRad, cat. no. 1704150EDU).

BT549 cells = assay: PD-L1 western blot after modulators (EM and MTAs); settings: Breast BT549, 30 minutes, 3 hours, 24 hours
Text: as §1, §2, §3

H292 cells = assay: PD-L1 western blot after modulators (EM and MTAs); settings: NSCLC H292, 30 minutes, 3 hours, 24 hours
Text: as §1, §2, §3

KYSE410 cells = assay: PD-L1 western blot after modulators (EM and MTAs); settings: Head and neck KYSE410, 30 minutes, 3 hours, 24 hours
Text: as §1
(§4) Enhancer Molecule and Therapies: IFNγ, (10 ng/ml; Sigma Aldrich, cat.no 11040596001), TNFα (10 ng/ml; BD Biosciences cat. no. 554618), Osimertinib (100 ng/ml; Selleckchem cat.no. S7297), Everolimus (100 ng/ml; Selleckchem cat.no S1120), GSK458 (10 ng/ml; Selleckchem cat. no. S2658), TNFb (50 ng/ml; Sigma Aldrich cat. no.), GSK795 (1,000 ng/ml; Selleckchem cat. no. S7492), IL-12 (50 ng/ml; Sigma Aldrich SRP3073), GM-CSF (50 ng/ml; Sigma Aldrich cat. no. G5035), IL-1a (1 ng/ml; Sigma Aldrich cat. no. 12778-), IL-6 (50 ng/ml; Sigma Aldrich), IL-17 (100 ng/ml; Sigma Aldrich cat. no. SRP3080), TGFb (1 ng/ml; Sigma Aldrich cat. no. T7039), and IL-10 (50 ng/ml; Sigma Aldrich cat. no. SRP3071) were administered to cell lines for various times including 30 minutes, 3 hour, and 24 hour time intervals prior to cell lysis and protein extraction.
as §3, with “The protein concentration of each lysate was analyzed by using the Pierce 660 Protein Assay Reagent (Thermo Fisher Scientific, cat. no. 22660) and testing of each sample was conducted in duplicate. Two μg of protein was then loaded per lane into 10% Midi-PROTEAN TGX Precast Gels (Bio Rad, cat. no. 5671034) along with Kaleidoscope Prestained Protein Standard (BioRad, cat. no. 1610375) which ran at 220V for 45 minutes. Proteins were transferred to mini-PVDF membranes (BioRad, cat. no. 1704156) in 3 minutes using the Trans-Blot Turbo Transfer System (BioRad, cat. no. 1704150EDU).” left out

H1975 cells = assay: PD-L1 western blot after modulators (EM and MTAs); settings: NSCLC H1975, 30 minutes, 3 hours, 24 hours
Text: as §1, §4
as §3, with “The protein concentration of each lysate was analyzed by using the Pierce 660 Protein Assay Reagent (Thermo Fisher Scientific, cat. no. 22660) and testing of each sample was conducted in duplicate. Two μg of protein was then loaded per lane into 10% Midi-PROTEAN TGX Precast Gels (Bio Rad, cat. no. 5671034) along with Kaleidoscope Prestained Protein Standard (BioRad, cat. no. 1610375) which ran at 220V for 45 minutes. Proteins were transferred to mini-PVDF membranes (BioRad, cat. no. 1704156) in 3 minutes using the Trans-Blot Turbo Transfer System (BioRad, cat. no. 1704150EDU).” left out

BT20 cells = assay: PD-L1 western blot after modulators (EM and MTAs); settings: Breast BT20, 30 minutes, 3 hours, 24 hours
Text: as §1, §4
as §3, with “The protein concentration of each lysate was analyzed by using the Pierce 660 Protein Assay Reagent (Thermo Fisher Scientific, cat. no. 22660) and testing of each sample was conducted in duplicate. Two μg of protein was then loaded per lane into 10% Midi-PROTEAN TGX Precast Gels (Bio Rad, cat. no. 5671034) along with Kaleidoscope Prestained Protein Standard (BioRad, cat. no. 1610375) which ran at 220V for 45 minutes. Proteins were transferred to mini-PVDF membranes (BioRad, cat. no. 1704156) in 3 minutes using the Trans-Blot Turbo Transfer System (BioRad, cat. no. 1704150EDU).” left out

H2126 cells = assay: PD-L1 western blot after modulators (EM and MTAs); settings: NSCLC H2126, 30 minutes, 3 hours, 24 hours
Text: as §1, §4
as §3, with “The protein concentration of each lysate was analyzed by using the Pierce 660 Protein Assay Reagent (Thermo Fisher Scientific, cat. no. 22660) and testing of each sample was conducted in duplicate. Two μg of protein was then loaded per lane into 10% Midi-PROTEAN TGX Precast Gels (Bio Rad, cat. no. 5671034) along with Kaleidoscope Prestained Protein Standard (BioRad, cat. no. 1610375) which ran at 220V for 45 minutes. Proteins were transferred to mini-PVDF membranes (BioRad, cat. no. 1704156) in 3 minutes using the Trans-Blot Turbo Transfer System (BioRad, cat. no. 1704150EDU).” left out

[1] = test system: various NSCLC, HNSCC, breast cancer, melanoma, colorectal cancer, and pancreatic cancer cell lines; assay: PD-L1 western blot after modulators, summary over all samples; settings: depending on the sample, summary of Table 3
Text: as §1, §2, §3

B1: IL1a: interleukin modulator, 1 ng/ml; Sigma Aldrich (protein, UniProt P01583 113-271, looked up)
Interleukin-1 alpha: SAPFSFLSNVKYNFMRIIKYEFILNDALNQSIIRANDQYLTAAALHNLDEAVKFDMGAYKSSKDDAKITVILRISKTQLYVTAQDEDQPVLLKEMPEIPKTITGSETNLLFFWETHGTKNYFTSVAHPNLFIATKQDYWVCLAGGPPSITDFQILENQA
PD-L1 Response (H1650 cells): Up | PD-L1 Response (BT549 cells): Up | PD-L1 Response (H292 cells): Up | PD-L1 Response (KYSE410 cells): Up | PD-L1 Response (H1975 cells): Up | PD-L1 Response (BT20 cells): Up | PD-L1 Response (H2126 cells): Up | regulation of PD-L1 across samples [1]: only led to upregulation
